Laboratory results taken from publication PMC4090420.

Experiments:
[1] = target: b12 3–5 αIM (Homo sapiens scaffold (engineered FNfn10)) (UniProt P02751); assay: SPR
b12 3–5 αIM F25A (human) = assay: ELISA
b12 3–5 αIM H24A (human) = assay: ELISA
b12 3–5 αIM L84A (human) = assay: ELISA

Chain of b12 3–5 αIM (Homo sapiens scaffold (engineered FNfn10)) (P02751 whole entry, looked up, stated change not applied): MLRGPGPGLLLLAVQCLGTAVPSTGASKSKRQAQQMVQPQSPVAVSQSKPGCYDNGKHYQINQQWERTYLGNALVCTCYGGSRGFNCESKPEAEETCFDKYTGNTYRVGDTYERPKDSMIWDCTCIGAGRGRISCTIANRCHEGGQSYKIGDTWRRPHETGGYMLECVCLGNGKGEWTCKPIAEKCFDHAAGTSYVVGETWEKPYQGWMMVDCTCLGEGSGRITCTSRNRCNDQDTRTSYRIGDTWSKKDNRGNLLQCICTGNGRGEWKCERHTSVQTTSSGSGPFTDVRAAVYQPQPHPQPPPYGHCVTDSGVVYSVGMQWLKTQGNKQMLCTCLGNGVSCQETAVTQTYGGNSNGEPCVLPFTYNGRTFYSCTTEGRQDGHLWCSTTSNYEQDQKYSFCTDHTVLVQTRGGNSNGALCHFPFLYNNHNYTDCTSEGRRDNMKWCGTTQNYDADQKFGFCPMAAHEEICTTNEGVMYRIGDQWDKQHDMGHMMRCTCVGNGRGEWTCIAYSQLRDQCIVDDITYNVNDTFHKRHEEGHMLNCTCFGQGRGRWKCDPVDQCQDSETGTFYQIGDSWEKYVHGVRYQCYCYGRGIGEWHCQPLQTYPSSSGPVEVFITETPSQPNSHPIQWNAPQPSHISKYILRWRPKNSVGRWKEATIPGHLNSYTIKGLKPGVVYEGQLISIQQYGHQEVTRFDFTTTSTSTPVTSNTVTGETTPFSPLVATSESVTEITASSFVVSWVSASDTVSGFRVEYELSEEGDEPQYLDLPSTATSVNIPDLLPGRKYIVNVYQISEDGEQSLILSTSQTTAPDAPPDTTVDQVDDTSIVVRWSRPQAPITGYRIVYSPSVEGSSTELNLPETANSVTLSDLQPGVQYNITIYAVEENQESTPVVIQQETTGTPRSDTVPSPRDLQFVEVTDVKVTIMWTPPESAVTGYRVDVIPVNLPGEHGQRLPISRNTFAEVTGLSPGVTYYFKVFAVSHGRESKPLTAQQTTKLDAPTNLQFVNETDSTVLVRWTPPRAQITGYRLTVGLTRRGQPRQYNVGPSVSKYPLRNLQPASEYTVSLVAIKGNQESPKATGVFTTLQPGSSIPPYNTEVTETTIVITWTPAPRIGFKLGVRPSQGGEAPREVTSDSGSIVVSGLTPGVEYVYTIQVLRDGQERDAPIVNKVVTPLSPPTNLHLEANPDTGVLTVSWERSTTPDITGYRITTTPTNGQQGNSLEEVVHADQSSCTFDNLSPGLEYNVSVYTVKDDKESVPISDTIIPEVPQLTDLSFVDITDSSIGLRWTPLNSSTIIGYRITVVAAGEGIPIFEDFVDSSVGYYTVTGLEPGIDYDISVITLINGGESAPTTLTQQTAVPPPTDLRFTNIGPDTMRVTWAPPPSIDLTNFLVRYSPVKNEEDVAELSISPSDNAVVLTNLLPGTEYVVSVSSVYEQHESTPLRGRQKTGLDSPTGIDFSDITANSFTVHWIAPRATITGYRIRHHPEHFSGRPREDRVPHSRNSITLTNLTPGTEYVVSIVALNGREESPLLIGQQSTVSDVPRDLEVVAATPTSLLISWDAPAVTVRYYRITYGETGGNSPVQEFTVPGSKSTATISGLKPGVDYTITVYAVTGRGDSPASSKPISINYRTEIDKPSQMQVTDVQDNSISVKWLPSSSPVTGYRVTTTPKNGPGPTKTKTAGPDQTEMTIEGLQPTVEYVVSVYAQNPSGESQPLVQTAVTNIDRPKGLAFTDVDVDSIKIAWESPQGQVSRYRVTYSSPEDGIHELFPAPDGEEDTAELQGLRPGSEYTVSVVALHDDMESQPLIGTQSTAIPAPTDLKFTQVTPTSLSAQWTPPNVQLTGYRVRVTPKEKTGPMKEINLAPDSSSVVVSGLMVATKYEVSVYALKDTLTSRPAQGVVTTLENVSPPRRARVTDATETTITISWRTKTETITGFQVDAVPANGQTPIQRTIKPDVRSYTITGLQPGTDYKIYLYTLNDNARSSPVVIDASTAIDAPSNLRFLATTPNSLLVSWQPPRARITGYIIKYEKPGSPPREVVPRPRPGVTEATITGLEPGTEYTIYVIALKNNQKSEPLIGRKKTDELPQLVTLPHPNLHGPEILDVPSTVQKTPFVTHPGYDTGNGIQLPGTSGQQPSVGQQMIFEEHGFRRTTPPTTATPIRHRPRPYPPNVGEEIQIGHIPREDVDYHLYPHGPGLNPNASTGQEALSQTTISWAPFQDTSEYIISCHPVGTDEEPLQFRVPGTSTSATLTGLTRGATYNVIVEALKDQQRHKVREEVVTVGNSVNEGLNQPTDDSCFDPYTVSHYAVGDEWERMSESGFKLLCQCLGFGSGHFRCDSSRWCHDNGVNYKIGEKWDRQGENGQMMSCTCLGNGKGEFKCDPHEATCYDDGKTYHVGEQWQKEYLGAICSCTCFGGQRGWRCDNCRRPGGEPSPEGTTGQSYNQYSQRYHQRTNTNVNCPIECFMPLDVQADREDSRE

Substance	Kd [1]	koff [1]	fold decrease of binding against wild type b12 3–5 αIM (b12 3–5 αIM F25A (human))	fold decrease of binding against wild type b12 3–5 αIM (b12 3–5 αIM H24A (human))	fold decrease of binding against wild type b12 3–5 αIM (b12 3–5 αIM L84A (human))
b12 Fab	43 nM	0.0068 s⁻¹			
b12 MAb (antibody)			> 10 fold	> 10 fold	5 fold
